Data from PMC5704011, “Discovery of High-Affinity PDGF-VEGFR Interactions: Redefining RTK Dynamics” (Scientific Reports, 2017).

Assays:
Conditions in all cases: both partners purified
[1] = biological target: T1, human recombinant PDGFRα (human, UniProt P16234 24-1089); assay: SPR; BIAcore 3000, 25 °C, CM5 chip; receptor immobilised by amine coupling (~200-500 R.U.); ligand injected at 10, 20 and 40 nM, 30 uL/min, 10 min dissociation; HBS-EP pH 7.4 (10 mM HEPES, 3 mM EDTA, 150 mM NaCl, 0.005% TWEEN-20); angiopoietin-4 reference cell subtracted; global 1:1 Langmuir fit; χ2-to-Rmax > 1.0 or negative association curves taken as no true interaction
T1 construct: platelet-derived growth factor receptor alpha, human, recombinant; also called PDGFRa; source: bought: R&D Systems

[2] = biological target: T2, human recombinant PDGFRβ (human, UniProt P09619 33-1106); assay: as above
T2 construct: platelet-derived growth factor receptor beta, human, recombinant; source: bought: R&D Systems

[3] = biological target: T3, human recombinant PDGFRα (human, UniProt P16234 24-528); assay: SPR; BIAcore 3000, 25 °C, CM5 chip; receptor immobilised by amine coupling (~200-500 R.U.); ligand injected at 40, 20 and 10 nM in HBS-EP pH 7.4 (10 mM HEPES, 3 mM EDTA, 150 mM NaCl, 0.005% TWEEN-20); angiopoietin-4 reference cell subtracted; global 1:1 Langmuir fit; χ^2-to-Rmax < 1.0 taken as a true interaction
T3 construct: Platelet-derived growth factor receptor alpha, human; also called PDGFRa; source: bought: R&D Systems (Cat #322-PR-050/CF), human recombinant

[4] = biological target: T4, human recombinant VEGFR2 (human, UniProt P35968 20-764); assay: as above
T4 construct: Vascular endothelial growth factor receptor 2 (KDR), human; source: bought: R&D Systems (Cat. #357-KD-050/CF), human recombinant
T4 sequence (P35968 20-764): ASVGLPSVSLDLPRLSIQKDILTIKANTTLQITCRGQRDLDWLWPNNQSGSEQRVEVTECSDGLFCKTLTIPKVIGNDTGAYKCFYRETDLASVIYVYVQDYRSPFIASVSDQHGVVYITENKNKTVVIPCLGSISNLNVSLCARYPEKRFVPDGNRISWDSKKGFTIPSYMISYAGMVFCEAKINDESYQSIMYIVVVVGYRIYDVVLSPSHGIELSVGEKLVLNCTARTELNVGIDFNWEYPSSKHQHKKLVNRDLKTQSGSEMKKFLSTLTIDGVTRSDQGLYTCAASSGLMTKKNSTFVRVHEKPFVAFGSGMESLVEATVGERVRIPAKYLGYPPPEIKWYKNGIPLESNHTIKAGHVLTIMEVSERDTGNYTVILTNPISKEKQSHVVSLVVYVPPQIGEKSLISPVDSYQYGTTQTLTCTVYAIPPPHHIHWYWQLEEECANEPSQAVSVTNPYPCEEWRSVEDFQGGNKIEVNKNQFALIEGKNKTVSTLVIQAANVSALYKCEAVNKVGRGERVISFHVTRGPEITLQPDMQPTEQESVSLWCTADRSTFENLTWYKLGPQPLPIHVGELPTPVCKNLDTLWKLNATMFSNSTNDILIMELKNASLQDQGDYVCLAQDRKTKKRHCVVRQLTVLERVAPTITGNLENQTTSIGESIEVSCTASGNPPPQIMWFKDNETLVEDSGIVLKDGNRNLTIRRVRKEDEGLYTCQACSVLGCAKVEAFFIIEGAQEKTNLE

T3 sequence (P16234 24-528): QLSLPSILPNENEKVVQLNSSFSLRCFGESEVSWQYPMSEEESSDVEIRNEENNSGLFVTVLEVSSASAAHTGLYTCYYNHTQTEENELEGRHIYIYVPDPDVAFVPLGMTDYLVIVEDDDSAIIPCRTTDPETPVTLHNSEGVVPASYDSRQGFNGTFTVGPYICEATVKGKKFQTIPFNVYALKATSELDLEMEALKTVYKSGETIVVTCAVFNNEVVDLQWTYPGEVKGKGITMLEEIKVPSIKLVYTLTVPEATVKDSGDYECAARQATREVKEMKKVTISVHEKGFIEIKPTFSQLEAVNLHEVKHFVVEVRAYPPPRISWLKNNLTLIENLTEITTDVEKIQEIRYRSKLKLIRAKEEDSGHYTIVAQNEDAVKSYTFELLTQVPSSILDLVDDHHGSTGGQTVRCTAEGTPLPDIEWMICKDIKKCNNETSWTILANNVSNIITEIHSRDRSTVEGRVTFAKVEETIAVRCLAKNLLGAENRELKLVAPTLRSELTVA
T2 sequence (P09619 33-1106): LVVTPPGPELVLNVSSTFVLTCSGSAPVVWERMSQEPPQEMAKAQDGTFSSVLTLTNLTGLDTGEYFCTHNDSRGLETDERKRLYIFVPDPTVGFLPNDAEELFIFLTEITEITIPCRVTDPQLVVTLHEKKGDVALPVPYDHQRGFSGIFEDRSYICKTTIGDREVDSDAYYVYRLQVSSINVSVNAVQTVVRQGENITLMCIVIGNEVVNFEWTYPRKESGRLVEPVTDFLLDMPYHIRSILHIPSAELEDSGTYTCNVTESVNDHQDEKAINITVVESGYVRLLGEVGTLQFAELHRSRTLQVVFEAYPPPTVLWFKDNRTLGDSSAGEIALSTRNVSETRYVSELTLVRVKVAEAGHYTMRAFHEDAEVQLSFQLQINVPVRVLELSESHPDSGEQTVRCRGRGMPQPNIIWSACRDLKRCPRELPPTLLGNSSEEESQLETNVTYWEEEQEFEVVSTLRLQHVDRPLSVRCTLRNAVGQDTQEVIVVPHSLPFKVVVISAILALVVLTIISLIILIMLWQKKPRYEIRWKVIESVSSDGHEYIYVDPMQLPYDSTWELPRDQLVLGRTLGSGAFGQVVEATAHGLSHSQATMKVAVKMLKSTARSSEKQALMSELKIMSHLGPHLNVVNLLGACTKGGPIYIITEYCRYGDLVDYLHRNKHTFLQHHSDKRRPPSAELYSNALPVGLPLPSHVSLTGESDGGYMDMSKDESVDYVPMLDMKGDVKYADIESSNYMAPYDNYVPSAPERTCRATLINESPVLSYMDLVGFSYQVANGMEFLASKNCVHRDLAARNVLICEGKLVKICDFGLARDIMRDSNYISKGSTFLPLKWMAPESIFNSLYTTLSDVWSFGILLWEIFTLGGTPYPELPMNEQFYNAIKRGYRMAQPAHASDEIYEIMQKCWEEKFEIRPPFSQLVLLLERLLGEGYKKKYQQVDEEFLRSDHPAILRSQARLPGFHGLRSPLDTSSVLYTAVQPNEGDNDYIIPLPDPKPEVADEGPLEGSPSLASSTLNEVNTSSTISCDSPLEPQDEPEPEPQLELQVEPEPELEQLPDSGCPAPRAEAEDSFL
T1 sequence (P16234 24-1089): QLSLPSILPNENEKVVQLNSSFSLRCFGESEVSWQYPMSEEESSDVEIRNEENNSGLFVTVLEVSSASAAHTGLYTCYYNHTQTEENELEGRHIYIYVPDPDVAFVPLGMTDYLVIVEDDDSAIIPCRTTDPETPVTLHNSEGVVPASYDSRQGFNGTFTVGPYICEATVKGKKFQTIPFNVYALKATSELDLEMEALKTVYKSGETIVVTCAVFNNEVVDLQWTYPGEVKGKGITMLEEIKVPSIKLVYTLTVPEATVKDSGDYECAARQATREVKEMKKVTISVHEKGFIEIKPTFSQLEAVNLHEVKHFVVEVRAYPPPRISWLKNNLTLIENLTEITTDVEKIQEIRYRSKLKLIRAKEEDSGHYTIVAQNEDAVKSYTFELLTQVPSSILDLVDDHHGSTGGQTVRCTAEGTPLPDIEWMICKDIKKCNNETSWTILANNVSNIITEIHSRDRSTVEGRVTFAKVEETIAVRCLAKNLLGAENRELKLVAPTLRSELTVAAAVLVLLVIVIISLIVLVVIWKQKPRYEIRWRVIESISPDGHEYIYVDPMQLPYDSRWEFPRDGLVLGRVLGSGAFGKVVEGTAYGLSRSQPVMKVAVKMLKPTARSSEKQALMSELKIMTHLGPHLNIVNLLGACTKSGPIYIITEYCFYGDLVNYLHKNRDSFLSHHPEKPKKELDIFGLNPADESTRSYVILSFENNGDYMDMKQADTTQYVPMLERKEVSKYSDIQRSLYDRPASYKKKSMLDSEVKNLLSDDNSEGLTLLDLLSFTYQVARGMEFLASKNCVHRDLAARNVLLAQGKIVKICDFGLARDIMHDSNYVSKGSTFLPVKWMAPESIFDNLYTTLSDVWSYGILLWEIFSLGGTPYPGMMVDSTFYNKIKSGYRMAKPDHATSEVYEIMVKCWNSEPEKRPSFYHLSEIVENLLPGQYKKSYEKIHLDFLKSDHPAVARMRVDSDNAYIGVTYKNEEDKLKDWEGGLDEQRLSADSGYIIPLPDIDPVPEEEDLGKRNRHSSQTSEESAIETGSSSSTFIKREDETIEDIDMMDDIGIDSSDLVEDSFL

B1: human recombinant PDGF-CC (ligand)
chain: VVDLNLLTEEVRLYSCTPRNFSVSIREELKRTDTIFWPGCLLVKRCGGNCACCLHNCNECQCVPSKVTKKYHEVLQLRPKTGVRGLHKSLTDVALEHHEECDCVCRGSTGG
modifications: disulfide-linked homodimer; limits not given, active growth factor domain after cleavage at Arg234 taken by convention
- koff [1]: 0.0002 s⁻¹
- kon [1]: 5000 M⁻¹ s⁻¹
- koff [2]: 0.0014 s⁻¹
- kon [2]: 740000 M⁻¹ s⁻¹

B2: human recombinant PDGF-CC (ligand, UniProt Q9NRA1 235-345, looked up)
chain: B1 chain
notes: Platelet-derived growth factor C, human; Homodimer by its name; source: bought: R&D Systems (Cat. #1687-CC-025), human recombinant
- Kd [3]: 0.0034 µM

B3: human recombinant PDGF-BB (ligand, UniProt P01127 82-190, looked up)
chain: SLGSLTIAEPAMIAECKTRTEVFEISRRLIDRTNANFLVWPPCVEVQRCSGCCNNRNVQCRPTQVQLRPVQVRKIEIVRKKPIFKKATVTLEDHLACKCETVAAARPVT
notes: Platelet-derived growth factor subunit B, human; Homodimer of B chains by its name; source: bought: R&D Systems (Cat. #220-BB-050), human recombinant
- Kd [3]: 0.42 µM
- Kd [4]: 0.037 µM
